Measured values: US7460961B2, “N-TRADD active site and uses thereof” (Genetics Institute, LLC, priority 2000, dated 2008)
Ends that are not written are not given here.

B1: N-terminal domain of human TNFR-1 associated death domain protein (N-TRADD), residues 1-169, wild type (other)
chain: MAAGQNGHEEWVGSAYLFVESSLDKVVLSDAYAHPQQKVAVYRALQAALAESGGSPDVLQMLKIHRSDPQLIVQLRFCGRQPCGRFLRAYREGALRAALQRSLAAALAQHSVPLQLELRAGAERLDALLADEERCLSCILAQQPDRLRDEELAELEDALRNLKCGSGAR
notes: Expressed in E. coli BL-21; monomeric (>95%) by SEC-HPLC; 15N or 15N/13C labelled for NMR; also called N-TRADD (1-169); wild-type N-TRADD; not shown: His tag introduced after aa169

Key:
N-TRADD [1] = target: T1, N-TRADD (Homo sapiens, UniProt Q15628); assay: BIAcore experiment, CD40 peptide with N-TRADD; format: binding; conditions: final peptide concentration approximately 15 mM; data not shown
T1 construct: The polypeptide for N-TRADD (1-169) was overexpressed in BL-21 E. coli; His tag (C); made in house; host or cells: E. coli BL-21, vector pRSETB
T1 sequence (Q15628 1-169): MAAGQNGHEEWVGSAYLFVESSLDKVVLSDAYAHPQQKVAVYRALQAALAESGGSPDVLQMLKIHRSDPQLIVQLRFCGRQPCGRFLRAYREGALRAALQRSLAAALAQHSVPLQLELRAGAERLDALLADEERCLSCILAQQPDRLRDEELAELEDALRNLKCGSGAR

N-TRADD [2] = target: T1, N-TRADD; assay: 1H-15N HSQC of N-TRADD with addition of peptide; format: binding
Procedure: (§1) NMR Spectroscopy: All NMR spectra were collected on a 600 MHZ Varian Unity Plus spectrometer. For the backbone assignments, HNCACB and HN(CO)CACB experiments (Clore and Gronenborn, Methods Enzymol. 239: 349-363, 1994; Muhandiram, et al., J. Magn. Reson. B103: 208-216, 1994) were performed. To confirm the type of amino acid assignment, C(CO)NH-TOCSY (Grzesiek, et al., J. Magnetic Resonance, B101: 114-119, 1993) was used. Side chain resonances were assigned from the following experiments: HBHA(CO)NH (Clore and Gronenborn, Methods Enzymol. 239: 349-363, 1994), HC(CO)NH-TOCSY (Grzesiek, et al., J. Magnetic Resonance. B101: 114-119, 1993) for the ^15N/^13C sample in 90% H2O, 10% D2O, HCCH-TOCSY for the ^15N/^13C-labeled sample in D2O, and ^15N-TOCSY-HSQC with the uniformly labeled ^15N protein.
Inhibition by the CD40-derived peptide was also observed in the ^1H-^15N HSQC studies of N-TRADD/C-TRAF2 binding. At stoichiometric concentrations of N-TRADD and C-TRAF2 (110 μM each), HSQC peaks for N-TRADD have broadened out due to binding to C-TRAF2 as described above.

N-TRADD/C-TRAF2 binding = target: T2, N-TRADD/C-TRAF2 binding (Homo sapiens, UniProt Q12933); assay: 1H-15N HSQC NMR study of N-TRADD/C-TRAF2 binding, inhibition by peptide; conditions: peptide 3 mM; N-TRADD and C-TRAF2 110 μM each; data not shown
T2 construct: The C-TRAF2 (residues 262-501) used in the instant HSQC titration experiment; initiator Met added before residue 262 (N); 6xHis (C); made in house; host or cells: C-TRAF2: baculovirus in 'Tini' cells; N-TRADD: E. coli BL-21
T2 sequence (Q12933 262-501): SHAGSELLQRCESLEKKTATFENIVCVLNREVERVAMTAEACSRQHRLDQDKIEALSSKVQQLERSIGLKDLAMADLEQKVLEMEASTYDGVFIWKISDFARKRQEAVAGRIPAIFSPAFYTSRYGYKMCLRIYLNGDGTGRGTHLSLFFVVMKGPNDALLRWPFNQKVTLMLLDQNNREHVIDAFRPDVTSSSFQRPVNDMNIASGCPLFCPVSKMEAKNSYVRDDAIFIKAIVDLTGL
Procedure: as §1
The ^1H-^15N HSQC of N-TRADD was used as a tool to map the binding interface with C-TRAF2, since the chemical shifts of contact residues will be perturbed upon complex formation. […] The C-TRAF2 (residues 262-501) used in the instant HSQC titration experiment (at 120 μM) is also a trimer, as determined by size exclusion chromatography. […] N-TRADD Mutagenesis and interactions between C-TRAF2 and N-TRADD: In order to further characterize the amino acids in N-TRADD that are involved in C-TRAF2 recognition, site directed mutants of N-TRADD were prepared and evaluated for their ability to bind C-TRAF2. […]

[3] = target: T3, N-TRADD/C-TRAF2 interaction (Homo sapiens, UniProt Q12933); assay: BIAcore competition for binding of N-TRADD to C-TRAF2
T3 construct: The C-TRAF2 (residues 262-501) used in the instant HSQC titration experiment; initiator Met added before residue 262 (N); 6xHis (C); made in house; host or cells: C-TRAF2: baculovirus in 'Tini' cells; N-TRADD: E. coli BL-21
T3 sequence (Q12933 262-501): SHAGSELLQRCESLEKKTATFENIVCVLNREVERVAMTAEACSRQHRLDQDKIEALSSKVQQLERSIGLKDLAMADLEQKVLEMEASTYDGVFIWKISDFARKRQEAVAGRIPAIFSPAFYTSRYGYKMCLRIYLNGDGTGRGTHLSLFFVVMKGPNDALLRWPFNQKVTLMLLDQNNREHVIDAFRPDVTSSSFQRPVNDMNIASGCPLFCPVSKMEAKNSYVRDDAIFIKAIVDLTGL
Procedure: (§2) C-TRAF2 and N-TRADD binding studies: The affinity of wild-type N-TRADD and C-TRAF2 was measured by surface plasma resonance using a BIAcore 2000 system (Pharmacia Biosensor AB). C-TRAF2 (residues 262-501) was purified and coupled to a sensor chip CM5 by amine coupling at pH=5.0 to get about 800, 1500 and 5500 response units on three different flow cells. A constant flow (20 μL/min) of purified N-TRADD protein in 10 mM Hepes, pH=7.4, 150 mM NaCl, 3.4 mM EDTA and 0.05% P20 surfactant at 8 different concentrations from 650 μM to 84 μM was applied over the protein coupled chip for 2 min to analyze the association. Binding constants were obtained from the BIAevaluation software.
In the instant studies, the interaction between a 13-mer peptide derived from CD40 (a longer version of CD40 -pl, with sequences SNTAAPVQETLHG (SEQ ID NO:2)) with C-TRAF2 was characterized, as well as its effect on the N-TRADD/C-TRAF2 interaction. […] In addition the peptide was also able to compete for the binding of N-TRADD to C-TRAF2, with an IC50 of ˜1 mM.
In addition to this 13-mer peptide, the effect of the CD40-p1 peptide (McWhirter et al, Proc. Natl. Acad. Sci. USA 96: 8408-8413, 1999) on the interaction between N-TRADD and C-TRAF2 was also evaluated. […]

[4] = target: T4, C-TRAF2 (residues 262 to 501 of human TRAF2) (human, UniProt Q12933 262-501); assay: BIAcore (SPR), C-TRAF2 amine-coupled to CM5 chip, N-TRADD in flow
T4 construct: range 262-501; Expressed by baculovirus; Amine-coupled to a CM5 chip in the BIAcore experiments; also called C-terminal domain of TRAF2; C-TRAF2 (residues 262-501)
T4 sequence: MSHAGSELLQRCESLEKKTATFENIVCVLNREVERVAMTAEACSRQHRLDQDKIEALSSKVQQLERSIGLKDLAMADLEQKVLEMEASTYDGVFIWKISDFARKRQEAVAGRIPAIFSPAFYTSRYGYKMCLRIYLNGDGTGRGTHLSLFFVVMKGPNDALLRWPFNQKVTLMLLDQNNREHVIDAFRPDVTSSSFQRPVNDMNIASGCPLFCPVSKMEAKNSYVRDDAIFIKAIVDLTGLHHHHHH
Procedure: as §2, with “µL/min)” for “μL/min)”, “µM” for “μM”

[5] = target: T4, C-TRAF2 (residues 262 to 501 of human …); assay: BIAcore surface plasmon resonance, C-TRAF2 (printed TF2-C) coupled to the CM5 chip, N-TRADD mutant in the flow
[6] = target: T4, C-TRAF2 (residues 262 to 501 of human …); assay: BIAcore (SPR), C-TRAF2 on chip
Procedure: as §2, with “µL/min)” for “μL/min)”, “µM” for “μM”

[7] = target: T4, C-TRAF2 (residues 262 to 501 of human …); assay: BIAcore (SPR)
[8] = target: B1; assay: 1H-15N HSQC NMR
[9] = target: T4, C-TRAF2 (residues 262 to 501 of human …); assay: BIAcore competition; competitor N-TRADD
[10] = target: T4, C-TRAF2 (residues 262 to 501 of human …); assay: inhibition of the N-TRADD/C-TRAF2 interaction; competitor N-TRADD

## SNTAAPVQETLHG-OH [13-mer peptide derived from CD40, SNTAAPVQETLHG-OH]
N-TRADD [1]
  interaction between peptide and N-TRADD by BIAcore: lack of interaction
N-TRADD [2]
  interaction between N-TRADD and peptide (changes in 1H-15N HSQC of N-TRADD): No interaction
N-TRADD/C-TRAF2 binding
  effect on 1H-15N HSQC spectrum of N-TRADD broadened by C-TRAF2: restored the ^1H-^15N HSQC spectrum of N-TRADD alone
[3]
  inhibition of the interaction between N-TRADD and C-TRAF2 (in words): inhibited

## B1
[4]
  Kd: 6 µM

B2: N-TRADD I72A mutant protein (other)
chain: MAAGQNGHEEWVGSAYLFVESSLDKVVLSDAYAHPQQKVAVYRALQAALAESGGSPDVLQMLKIHRSDPQLAVQLRFCGRQPCGRFLRAYREGALRAALQRSLAAALAQHSVPLQLELRAGAERLDALLADEERCLSCILAQQPDRLRDEELAELEDALRNLKCGSGAR
notes: also called 172A (so in the source); not shown: His tag after aa169 of the N-TRADD construct
[5]
  binding result: binds

B3: N-TRADD H65A mutant protein (other)
chain: MAAGQNGHEEWVGSAYLFVESSLDKVVLSDAYAHPQQKVAVYRALQAALAESGGSPDVLQMLKIARSDPQLIVQLRFCGRQPCGRFLRAYREGALRAALQRSLAAALAQHSVPLQLELRAGAERLDALLADEERCLSCILAQQPDRLRDEELAELEDALRNLKCGSGAR
notes: Single point mutant of the N-TRADD (1-169) construct; not shown: His tag after aa169 of the N-TRADD construct
[5]
  binding result: binds

B4: N-TRADD D149A mutant protein (other)
chain: MAAGQNGHEEWVGSAYLFVESSLDKVVLSDAYAHPQQKVAVYRALQAALAESGGSPDVLQMLKIHRSDPQLIVQLRFCGRQPCGRFLRAYREGALRAALQRSLAAALAQHSVPLQLELRAGAERLDALLADEERCLSCILAQQPDRLRAEELAELEDALRNLKCGSGAR
notes: as for B3
[5]
  binding result: binds

B5: N-TRADD Y16A mutant protein (other)
chain: MAAGQNGHEEWVGSAALFVESSLDKVVLSDAYAHPQQKVAVYRALQAALAESGGSPDVLQMLKIHRSDPQLIVQLRFCGRQPCGRFLRAYREGALRAALQRSLAAALAQHSVPLQLELRAGAERLDALLADEERCLSCILAQQPDRLRDEELAELEDALRNLKCGSGAR
notes: as for B3
[6]
  fold reduction in C-TRAF2 affinity against wild-type N-TRADD: ~16 fold

B6: 13-mer peptide derived from CD40 (SNTAAPVQETLHG-OH) (peptide)
peptide: SNTAAPVQETLHG-OH
notes: Synthesised by Fmoc solid-phase methods; printed with a free C-terminus (-OH); also called CD40 peptide; CD40-derived peptide
[7]
  Kd: ~1000 µM
[8]
  binding result: no binding
[9]
  IC50: ~1000 µM

B7: CD40-p1 peptide (YPIQET) (peptide)
peptide: YPIQET
notes: Peptide of McWhirter et al; also called CD40-pl; 6-mer peptide
[10]
  IC50: ~200 µM
